{"source": "paper PMC8623585", "about": "(Vaccines, 2021)", "binders": {"B1": {"name": "Plant-produced IL6RmAb (anti-IL-6 receptor monoclonal antibody with the amino acid sequence of sarilumab) (antibody, V domains shown)", "VH": "EVQLVESGGGLVQPGRSLRLSCAASRFTFDDYAMHWVRQAPGKGLEWVSGISWNSGRIGYADSVKGRFTISRDNAENSLFLQMNGLRAEDTALYYCAKGRDSFDIWGQGTMVTVSS", "VL": "DIQMTQSPSSVSASVGDRVTITCRASQGISSWLAWYQQKPGKAPKLLIYGASSLESGVPSRFSGSGSGTDFTLTISSLQPEDFASYYCQQANSFPYTFGQGTKLEIK", "notes": "heavy chain of sarilumab; light chain of sarilumab; Full IgG1 with kappa light chain, heterotetramer of ~150 kDa; made in a glycoengineered N. benthamiana line; also called pIL6RmAb; anti-IL6R mAb; copies: 2 + 2"}}, "key": {"Human IL-6 receptor [1]": {"molecular_target": "T1, Human IL-6 receptor (Homo sapiens, UniProt P08887)", "T1 construct": "interleukin 6 receptor (IL-6R), human; also called interleukin 6 receptor; source: bought: Sino Biological", "T1 sequence (P08887 20-365)": "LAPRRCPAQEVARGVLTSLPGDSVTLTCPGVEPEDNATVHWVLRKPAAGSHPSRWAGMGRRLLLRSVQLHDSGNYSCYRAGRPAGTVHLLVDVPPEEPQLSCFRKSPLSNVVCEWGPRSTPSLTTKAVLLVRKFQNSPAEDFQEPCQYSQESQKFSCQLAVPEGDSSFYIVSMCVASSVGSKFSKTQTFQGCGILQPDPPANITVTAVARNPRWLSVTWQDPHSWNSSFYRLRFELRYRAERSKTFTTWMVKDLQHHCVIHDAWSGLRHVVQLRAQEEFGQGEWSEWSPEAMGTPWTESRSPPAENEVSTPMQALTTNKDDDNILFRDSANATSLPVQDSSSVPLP", "test": "ELISA; human IL-6R (2 µg/mL) immobilised on microtiter plates; serial dilutions of pIL6RmAb; detected with HRP-conjugated anti-human-gamma HC antibody; KD by non-linear regression, one-site binding model", "conditions": "both partners purified"}, "Human IL-6 receptor [2]": {"molecular_target": "T1, Human IL-6 receptor", "test": "cell-based or functional assay"}}}
{"binder": "B1", "values": [{"measurement": "Kd", "setting": "Human IL-6 receptor [1]", "value": 0.083, "unit": "nM"}, {"measurement": "IC50 of inhibition of IL-6 signaling in luciferase reporter cells (Promega IL-6 Bioassay) with 25 ng/mL (~1.19 nM) recombinant human IL-6; blocks IL-6 with IL-6R", "setting": "Human IL-6 receptor [2]", "value": 0.081, "unit": "µg/mL"}, {"measurement": "IC50 of inhibition of IL-6 signaling in luciferase reporter cells (Promega IL-6 Bioassay) with 25 ng/mL (~1.19 nM) recombinant human IL-6; blocks IL-6 with IL-6R (the same IC50 in molar units)", "setting": "Human IL-6 receptor [2]", "value": "~0.54", "unit": "nM"}]}
